Drawing on patent publication US20220296726A1 (Bicycle, published 2022), this text covers Kd for 48 molecules.

For the assay, the target named is T1, Human TREM2 extracellular domain (ECD), residues 19-131, C-terminally biotinylated, deglycosylated (human, UniProt Q9NZC2 19-131, C-terminally biotinylated; deglycosylated).
T1 construct: range 19-131; loaded on Superstreptavidin biosensors; also called triggering receptor expressed on myeloid cells 2; Human BLI (deglycosylated)
T1 sequence (looked up): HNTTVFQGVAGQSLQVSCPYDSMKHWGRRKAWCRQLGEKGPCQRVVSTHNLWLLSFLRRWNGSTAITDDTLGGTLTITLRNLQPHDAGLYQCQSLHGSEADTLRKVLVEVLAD
The experiment in a line: BLI steady state, deglycosylated human TREM2 ECD on sensor. The procedure:
Bio-layer interferometry was performed on an Octet RED384® system (Sartorius) at 25° C. in a buffer containing 50 mM HEPES (pH 7.5), 150 mM NaCl and 0.1% Tween. […] Reference wells containing no bicycle peptides and reference sensors loaded with an unrelated protein (His-tagged MLLT3a) were subjected to the same assay protocol and double reference subtraction was used for processing to account for non-specific binding. Traces were analysed using Octet Software (Version 11.0). Association and dissociation curves were globally fit and the response at equilibrium (Req) plotted against concentration to obtain steady-state KD values.

*1 amine or outer side, *2 acyl side, *3 side chain or, on linkers, in order; H or OH if unused. Bridges are numbered along the chain shown (N, C = ends). Where no end group is shown, it is not given here. [ ]: non-standard residue; d: D form. The star is where a group is joined. TATA = O=C(CC[*:1])N1CN(C(=O)CC[*:2])CN(C(=O)CC[*:3])C1; Phe(4-CF3) = N[C@@H](Cc1ccc(C(F)(F)F)cc1)C(=O)O; Phe(3-Me) = Cc1cccc(C[C@H](N)C(=O)O)c1; 2Nal = N[C@@H](Cc1ccc2ccccc2c1)C(=O)O; Pent4ynoyl = C#CCCC(=O)*; Aib = CC(C)(N)C(=O)O

Broadly, the Kd is the constant that tells how readily two partners part at equilibrium. Low readings indicate tighter binding, high ones weaker binding. Turning to CSEYCFWPFYHC-NH2 (linker 1-5-12 via TATA) [BCY18219], the affinity, expressed as Kd, was 700 nM.
Under Ac-CSEYCF[Phe(3-Me)]PFYHC (linker 1-5-12 via TATA) [BCY20064] stands 5240 nM; under CSEYCFWPFYXC (N-terminal acetyl (Ac); CiSEYCiiFWPFY[HArg]Ciii; Ci, Cii, Ciii on TATA scaffold) [BCY20575], 375 nM.
With ACSEYCFWPFYSCA (linker 2-6-13 via TATA) [BCY17669] the figure was 1200 nM; with ACSEYCFWPFYLCA (linker 2-6-13 via TATA) [BCY19777], approximately 1200 nM; with ACSEYCFWPFFNCA (Ci, Cii, Ciii on TATA scaffold) [BCY17672], 2000 nM.
As to ACSEYCFWPFYPCA (linker 2-6-13 via TATA) [BCY17670], the Kd came to 1700 nM.

B1: BCY18220 (peptide)
peptide: ACAEYCFWPFYHCA-NH2
modifications: linker 2-6-13 via TATA; N-terminus assumed
SMILES: C[C@H](N)C(=O)N[C@H]1CSCCC(=O)N2CN3CN(C2)C(=O)CCSC[C@H](NC(=O)[C@H](Cc2ccc(O)cc2)NC(=O)[C@H](CCC(=O)O)NC(=O)[C@H](C)NC1=O)C(=O)N[C@@H](Cc1ccccc1)C(=O)N[C@@H](Cc1c[nH]c2ccccc12)C(=O)N1CCC[C@H]1C(=O)N[C@@H](Cc1ccccc1)C(=O)N[C@@H](Cc1ccc(O)cc1)C(=O)N[C@@H](Cc1c[nH]cn1)C(=O)N[C@H](C(=O)N[C@@H](C)C(N)=O)CSCCC3=O
B1 came in with a Kd of 2000 nM.
Turning to ACSEYCFWPFWNCA (Ci, Cii, Ciii on TATA scaffold) [BCY17671], the Kd came out at 900 nM.
Regarding ACSAYCFWPFYHCA (linker 2-6-13 via TATA) [BCY18221], the Kd turned out to be 1800 nM.
Molecule ACSEYCFWAFYHCA (linker 2-6-13 via TATA) [BCY18225] showed a Kd of 14000 nM.
As for ACSEYCFWPFAHCA (linker 2-6-13 via TATA) [BCY18227], the Kd stood at 3100 nM.
On to ACSEYCFWPFYACA (linker 2-6-13 via TATA) [BCY18228], for which the Kd stood at 2600 nM.
Under Ac-CSEYCF[Phe(4-CF3)]PFYHC (linker 1-5-12 via TATA) [BCY20065] stands 7280 nM; under Ac-CSEYCFWPFYHCK(Pent4ynoyl) (linker 1-5-12 via TATA) [BCY20085], 1620 nM; under Ac-CSEYCFWPK(Pent4ynoyl)YHC (linker 1-5-12 via TATA) [BCY20101], 18600 nM.
Regarding Ac-CSEYCFW[Aib]FYHC (linker 1-5-12 via TATA) [BCY19670], the Kd was found to be 30000 nM.
With Ac-CSEYCF[2Nal]PFYHC (linker 1-5-12 via TATA) [BCY20056], the Kd was found to be 4690 nM.
Ac-CSEYCFWPFQYC (linker 1-5-12 via TATA) [BCY20220] showed a Kd of 1300 nM.
Ac-CSYYCFWPFQYC (linker 1-5-12 via TATA) [BCY20221]: binding was characterised by a dissociation constant (Kd) of 690 nM.
As to CSEYCFWPXYHC (N-terminal acetyl (Ac); CiSEYCiiFWP[4Pal]YHCiii; Ci, Cii, Ciii on TATA scaffold) [BCY20569], the affinity, expressed as Kd, was 3800 nM.

B2: BCY20057 (peptide)
peptide: CSEYCFXPFYHC
modifications: N-terminal acetyl (Ac); CiSEYCiiF[6FTrp]PFYHCiii; Ci, Cii, Ciii on TATA scaffold
Molecule B2 returned a Kd of 2560 nM.
With Ac-ACSEYCFWPFYHCA-NH2 (linker 2-6-13 via TATA) [BCY18218] the figure was 2000 nM.
Regarding CSEYCXWPFYHC (N-terminal acetyl (Ac); CiSEYCii[4Pal]WPFYHCiii; Ci, Cii, Ciii on TATA scaffold) [BCY20567], the Kd was determined as 1020 nM.

B3: BCY20096 (peptide)
peptide: CSXYCFWPFYHC
modifications: N-terminal acetyl (Ac); CiS[K(PYA)]YCiiFWPFYHCiii; Ci, Cii, Ciii on TATA scaffold
The molecule B3 displayed a Kd of 2500 nM.
For Ac-CSEYCFWPFYHC-NH2 (linker 1-5-12 via TATA) [BCY18217], the Kd came to 900 nM.
With Ac-CSEYCFWPFEHC (linker 1-5-12 via TATA) [BCY20571] the figure was 2210 nM; with Ac-CSEYCFWPF[dA]HC (linker 1-5-12 via TATA) [BCY20093], 4680 nM.
Ac-CSEYCFWPFDHC (linker 1-5-12 via TATA) [BCY20570] yielded a Kd of 1870 nM.
In turn, Ac-CSEYCFWPFY[dA]C (linker 1-5-12 via TATA) [BCY20094] yielded a Kd of 2530 nM.
Molecule Ac-CSEYCFWPLYHC (linker 1-5-12 via TATA) [BCY20070] came in with a Kd of 1660 nM.
Regarding Ac-CSEYCYWPFYHC (linker 1-5-12 via TATA) [BCY20566], the Kd was 2140 nM.
As for Ac-CSEYCFWPFYSC (linker 1-5-12 via TATA) [BCY20084], the dissociation constant Kd was found to be 1650 nM.
Ac-CDEYCFWPFYHC (linker 1-5-12 via TATA) [BCY20563] came in with a Kd of 3170 nM.

B4: BCY20083 (peptide)
peptide: Ac-CSEYCFWPFYNC-NH2
modifications: linker 1-5-12 via TATA
SMILES: CC(=O)N[C@H]1CSCCC(=O)N2CN3CN(C2)C(=O)CCSC[C@H](NC(=O)[C@H](Cc2ccc(O)cc2)NC(=O)[C@H](CCC(=O)O)NC(=O)[C@H](CO)NC1=O)C(=O)N[C@@H](Cc1ccccc1)C(=O)N[C@@H](Cc1c[nH]c2ccccc12)C(=O)N1CCC[C@H]1C(=O)N[C@@H](Cc1ccccc1)C(=O)N[C@@H](Cc1ccc(O)cc1)C(=O)N[C@@H](CC(N)=O)C(=O)N[C@H](C(N)=O)CSCCC3=O
The molecule B4 had a Kd of 1840 nM.
Ac-CSEYCFWPFYPC (linker 1-5-12 via TATA) [BCY20082] displayed a Kd of 1930 nM.
As for Ac-CSEYCFWPFYFC (linker 1-5-12 via TATA) [BCY20576], binding was put at a Kd of 1350 nM.
Ac-CSEYCFWPFYQC (linker 1-5-12 via TATA) [BCY20572] showed a dissociation constant (Kd) of 1060 nM.
Molecule Ac-CSEYCFWPYYHC (linker 1-5-12 via TATA) [BCY20568] returned a Kd of 2280 nM.
Under Ac-CSEYCFWPFYDC (linker 1-5-12 via TATA) [BCY20573] stands 1960 nM; under Ac-CSEYCFWPFYEC (linker 1-5-12 via TATA) [BCY20574], 1740 nM.
Regarding Ac-CS[dA]YCFWPFYHC (linker 1-5-12 via TATA) [BCY20087], the Kd was found to be 18000 nM.
In turn, Ac-C[dA]EYCFWPFYHC (linker 1-5-12 via TATA) [BCY20086] yielded a Kd of 18000 nM.

B5: BCY20102 (peptide)
peptide: CSEYCFWPFXHC
modifications: N-terminal acetyl (Ac); CiSEYCiiFWPF[K(PYA)]HCiii; Ci, Cii, Ciii on TATA scaffold
Take B5: binding was characterised by a dissociation constant (Kd) of 1460 nM.
As to Ac-CSEYCFWPFFLC (linker 1-5-12 via TATA) [BCY20222], binding was characterised by a dissociation constant (Kd) of 1570 nM.

B6: BCY20062 (peptide)
peptide: CSEYCFXPFYHC
modifications: not fully specified; N-terminal acetyl (Ac); CiSEYCiiF[AzaTrp]PFYHCiii; Ci, Cii, Ciii on TATA scaffold
Regarding B6, the Kd is 3440 nM.

B7: BCY20058 (peptide)
peptide: CSEYCFXPFYHC
modifications: N-terminal acetyl (Ac); CiSEYCiiF[5FTrp]PFYHCiii; Ci, Cii, Ciii on TATA scaffold
For B7, binding was put at a Kd of 1430 nM.

B8: BCY20051 (peptide)
peptide: CSEYCXWPFYHC
modifications: N-terminal acetyl (Ac); CiSEYCii[2FPhe]WPFYHCiii; Ci, Cii, Ciii on TATA scaffold
B8: binding was put at a Kd of 2040 nM.
